US20150239977A1 (MIT, published 2015)

T1: CD20 protein on the surface of B-cells (Raji cells, a Burkitt's lymphoma cell line) (human, UniProt P11836 1-297)
T1 construct: also called CD20 antigen; B lymphocyte antigen CD20
T1 sequence: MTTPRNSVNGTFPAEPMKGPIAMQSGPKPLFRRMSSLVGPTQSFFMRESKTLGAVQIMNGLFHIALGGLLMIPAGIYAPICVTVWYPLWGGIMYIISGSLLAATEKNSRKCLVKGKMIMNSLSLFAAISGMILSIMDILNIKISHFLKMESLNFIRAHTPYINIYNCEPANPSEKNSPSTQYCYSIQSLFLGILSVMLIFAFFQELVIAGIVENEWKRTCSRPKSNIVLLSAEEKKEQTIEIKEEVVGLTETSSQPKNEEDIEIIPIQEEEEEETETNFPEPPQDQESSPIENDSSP

B1: CD20-binding protein with M1/M2/M3/M4/M7 modifications (V3Q, A9S, I10S, V59S, L153D in the rituximab light chain) (antibody, human IgG1, kappa, V domains shown)
VH: QVQLQQPGAELVKPGASVKMSCKASGYTFTSYNMHWVKQTPGRGLEWIGAIYPGNGDTSYNQKFKGKATLTADKSSSTAYMQLSSLTSEDSAVYYCARSTYYGGDWYFNVWGAGTTVTVSA
VL: QIQLSQSPSSLSASPGEKVTMTCRASSSVSYIHWFQQKPGSSPKPWIYATSNLASGVPSRFSGSGSGTSYSLTISRVEAEDAATYYCQQWTSNPPTFGGGTKLEIKR
notes: Heavy chain unmodified; whole IgG as for the wild type; also called M1/2/3/4/7
B2: CD20-binding protein with the M9 modification (Y101S in the rituximab Fab heavy chain, in the CDR) (antibody, human IgG1, kappa, V domains shown)
VH: QVQLQQPGAELVKPGASVKMSCKASGYTFTSYNMHWVKQTPGRGLEWIGAIYPGNGDTSYNQKFKGKATLTADKSSSTAYMQLSSLTSEDSAVYYCARSTSYGGDWYFNVWGAGTTVTVSA
VL: QIVLSQSPAILSASPGEKVTMTCRASSSVSYIHWFQQKPGSSPKPWIYATSNLASGVPVRFSGSGSGTSYSLTISRVEAEDAATYYCQQWTSNPPTFGGGTKLEIKR
notes: Whole IgG as for the wild type; also called M9 (Y101S); CDR mutation

Target: T1, CD20 protein on the surface of B-cells …
Assay: indirect immunofluorescence on Raji cells, flow cytometry
Description: Binding affinity of an antibody to its target antigen can be an indicator of antibody efficacy. An indirect immunofluorescence cell-based binding assay was conducted to determine the dissociation constant (KD) between select CD20-binding proteins of the invention and the targeted antigen (CD20 protein on the surface of B-Cells). […] Because of this, the raw data was fitted to the following equation: […]

| Binder | binding result |
| --- | --- |
| B1 | binds |
| B2 | no binding |
